From the Human Domainome abundance scans (Beltran et al. 2025)
± gives the uncertainty stated by the source.

B1: Triacylglycerol hydrolase DDHD2, residues 389 to 447; numbered along this chain, O94830 (parent)
chain: TLEEDLKKLQLSEFFDIFEKEKVDKEALALCTDRDLQEIGIPLGPRKKILNYFSTRKNS

Variants of: B1
Assay: abundance fitness (aPCA) (normalised: wild type 0, dead -1); higher = more abundant; growth selection in yeast, the domain comes from the species named
Conditions: Homo sapiens

Variant | abundance fitness
D33M | 0.124 ± 0.095
D33R | -0.576 ± 0.078
D33Y | -0.498 ± 0.12
D33W | -0.51 ± 0.1
R56F | -0.074 ± 0.11
R56E | 0.123 ± 0.082
R56H | -0.207 ± 0.12
R56K | -0.143 ± 0.14
R56V | 0.035 ± 0.064
R56L | -0.086 ± 0.065
R56T | 0.033 ± 0.081
R56D | 0.05 ± 0.11
R56P | 0.084 ± 0.093
R56G | -0.105 ± 0.062
K57C | -0.269 ± 0.093
K57G | -0.031 ± 0.061
K57M | 0.067 ± 0.092
K57Y | -0.244 ± 0.14
K57V | -0.175 ± 0.072
K57F | -0.224 ± 0.14
K57S | -0.115 ± 0.072
R46I | -0.163 ± 0.1
R46L | -0.744 ± 0.088
R46N | -0.152 ± 0.11

Variant | abundance fitness
R46P | -0.628 ± 0.11
R46A | 0.45 ± 0.066
R46E | -0.217 ± 0.1
K25M | 0.086 ± 0.096
K25W | -0.329 ± 0.086
K25V | 0.027 ± 0.07
K25H | 0.159 ± 0.15
K25R | -0.053 ± 0.06
K25I | -0.041 ± 0.14
K25G | 0.083 ± 0.059
K25F | -0.078 ± 0.14
K25E | 0.293 ± 0.08
L11W | -1.12 ± 0.075
L11H | -0.83 ± 0.1
L11A | -0.882 ± 0.098
L11E | -0.856 ± 0.088
L11Y | -1.15 ± 0.19
L11S | -0.969 ± 0.072
N51H | -0.148 ± 0.12
N51T | 0.119 ± 0.079
N51P | -0.37 ± 0.11
N51R | 0.042 ± 0.067
N51I | -0.93 ± 0.17
N51A | 0.151 ± 0.073

Variant | abundance fitness
N51Q | 0.166 ± 0.1
N51V | -0.729 ± 0.092
N51C | -0.323 ± 0.096
K47Q | 0.492 ± 0.1
F18M | -0.225 ± 0.15
F18I | -0.16 ± 0.16
Y52Q | 0.123 ± 0.12
Y52R | -0.237 ± 0.059
Y52V | -0.26 ± 0.066
Y52D | -0.088 ± 0.1
Y52K | -0.3 ± 0.094
Y52T | -0.172 ± 0.11
Y52M | -0.21 ± 0.082
Y52I | -0.387 ± 0.2
Y52F | 0.172 ± 0.16
S54K | -0.071 ± 0.11
S54Y | -0.443 ± 0.12
Q37N | -0.305 ± 0.14
Q37F | -0.01 ± 0.12
Q37G | 0.049 ± 0.064
Q37L | -0.343 ± 0.074
Q37I | 0.086 ± 0.1
G40W | -1.23 ± 0.17
G40N | -0.253 ± 0.14

Variant | abundance fitness
G40Q | -0.216 ± 0.12
G40Y | -1.2 ± 0.27
G40E | -0.556 ± 0.1
G40I | -0.839 ± 0.17
G40T | -0.67 ± 0.1
R34W | -0.051 ± 0.092
R34K | -0.087 ± 0.095
R34L | -0.001 ± 0.063
P45D | 0.017 ± 0.076
P45A | 0.615 ± 0.067
P45S | -0.032 ± 0.068
P45N | -0.274 ± 0.08
P45T | -0.031 ± 0.081
P45F | -0.144 ± 0.072
P45E | 0.244 ± 0.11
C31R | -0.188 ± 0.071
C31N | -0.304 ± 0.11
C31Y | 0.626 ± 0.11
C31E | -0.366 ± 0.099
C31K | 0.489 ± 0.094
I41H | -0.31 ± 0.14
I41R | -0.289 ± 0.066
I41L | 0.069 ± 0.062
I41V | 0.003 ± 0.063

Variant | abundance fitness
V23C | -0.47 ± 0.14
V23Q | -0.331 ± 0.1
V23D | -0.177 ± 0.094
V23L | 0.354 ± 0.067
V23K | 0.101 ± 0.11
A29E | 0.005 ± 0.11
A29C | -0.23 ± 0.086
L28W | -0.383 ± 0.092
L28E | -0.129 ± 0.096
L28T | -0.342 ± 0.1
L28S | -0.215 ± 0.078
L28Q | -0.365 ± 0.12
L28N | -0.404 ± 0.11
L28K | -0.467 ± 0.1
L28Y | -0.634 ± 0.15
L2K | -0.426 ± 0.11
L2H | -0.818 ± 0.17
L2F | -0.269 ± 0.091
L2W | -0.52 ± 0.082
L2I | -0.017 ± 0.094
L2M | 0.041 ± 0.085
L2C | -0.621 ± 0.089
T55D | -0.067 ± 0.086
T55H | -0.146 ± 0.14

Variant | abundance fitness
T55I | 0.122 ± 0.11
I39F | 0.448 ± 0.12
I39T | -0.336 ± 0.089
I39R | -0.008 ± 0.065
I39D | -0.3 ± 0.12
I39K | 0.196 ± 0.087
E19T | 0.023 ± 0.084
E19W | -0.463 ± 0.092
E19I | 0.007 ± 0.1
E19D | 0.129 ± 0.1
E19V | 0.049 ± 0.065
E19A | -0.225 ± 0.069
S12H | 0.052 ± 0.083
S12V | -0.099 ± 0.052
S12Q | 0.101 ± 0.075
S12D | 0.037 ± 0.074
S12T | 0.017 ± 0.059
S12M | -0.119 ± 0.072
S12K | -0.032 ± 0.078
L43V | 0.48 ± 0.053
L43G | 0.231 ± 0.052
L43N | 0.295 ± 0.055
E26I | -0.219 ± 0.16
E26G | 0.27 ± 0.063

Variant | abundance fitness
E26F | -0.223 ± 0.14
E26V | -0.21 ± 0.08
E26M | -0.072 ± 0.11
K22I | -0.479 ± 0.11
K22D | 0.194 ± 0.11
K22M | -0.103 ± 0.095
K22H | 0.076 ± 0.11
K22G | 0.455 ± 0.067
K22L | -0.172 ± 0.064
K22N | 0.381 ± 0.097
K22R | -0.193 ± 0.073
K22S | 0.107 ± 0.075
K22F | 0.002 ± 0.09
T1D | 0.014 ± 0.3
T1Q | -0.506 ± 0.28
T1E | -0.042 ± 0.17
L6G | -0.698 ± 0.088
L6P | -0.35 ± 0.1
L6F | 0.134 ± 0.23
L6K | -0.335 ± 0.15
L6M | -0.208 ± 0.12
L6T | -0.492 ± 0.11
L6E | -0.765 ± 0.12
